Two substances from PMC5942852 can be followed below.

Experiment [1] addresses H2-6 position 67 mutant (Y->E) (human). Description: SPR; ProteOn XPR36 (Bio-Rad), GLC chip; IgG captured on amine-coupled anti-human capture antibody (Human Antibody Capture Kit), antigen as analyte; 1x HBS-EP+ pH 7.4 with BSA 1 mg/ml; equilibrium or kinetic Langmuir model.
Experiment [2] has as its target H2-6 position 59 mutant (Y->F) (human). The description is as above.
For experiment [3], the target named is CH103 (human). The description is as above.
Sequence of CH103 (human) (heavy, as listed by the source, chain 1 of 2): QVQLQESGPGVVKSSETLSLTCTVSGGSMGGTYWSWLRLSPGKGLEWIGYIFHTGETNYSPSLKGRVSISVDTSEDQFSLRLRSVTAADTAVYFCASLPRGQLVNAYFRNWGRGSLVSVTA
Sequence of CH103 (human) (light, as listed by the source, chain 2 of 2): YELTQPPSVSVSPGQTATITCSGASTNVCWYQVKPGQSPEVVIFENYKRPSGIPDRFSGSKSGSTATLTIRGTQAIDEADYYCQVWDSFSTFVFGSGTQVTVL
In experiment [4] the target is CH103 WT with the H2-6 residue at position 67 (E->Y) (human). The experiment is described as above.
Sequence of CH103 WT with the H2-6 residue at position 67 (E->Y) (human) (heavy, as listed by the source, chain 1 of 2): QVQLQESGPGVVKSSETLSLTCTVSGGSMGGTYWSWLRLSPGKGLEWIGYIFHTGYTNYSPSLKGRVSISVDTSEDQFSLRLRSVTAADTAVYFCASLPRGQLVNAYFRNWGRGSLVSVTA
Sequence of CH103 WT with the H2-6 residue at position 67 (E->Y) (human) (light, as listed by the source, chain 2 of 2): as the sequence (light, as listed by the source, chain 2 of 2) above
The target of experiment [5] is CH103 (human). Briefly: SPR; Biacore 4000, CM5 chip; IgG captured on amine-coupled anti-human capture antibody (Human Antibody Capture Kit), antigen as analyte; 1x HBS-EP+ pH 7.4 with BSA 1 mg/ml; equilibrium or kinetic Langmuir model; apparent KD.

Sequence of H2-6 position 67 mutant (Y->E) (human) (heavy, as listed by the source, chain 1 of 2): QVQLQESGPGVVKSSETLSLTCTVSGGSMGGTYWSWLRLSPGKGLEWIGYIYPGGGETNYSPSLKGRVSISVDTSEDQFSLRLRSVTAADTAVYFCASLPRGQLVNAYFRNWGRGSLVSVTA
Sequence of H2-6 position 67 mutant (Y->E) (human) (light, as listed by the source, chain 2 of 2): as the sequence (light, as listed by the source, chain 2 of 2) above
Sequence of H2-6 position 59 mutant (Y->F) (human) (heavy, as listed by the source, chain 1 of 2): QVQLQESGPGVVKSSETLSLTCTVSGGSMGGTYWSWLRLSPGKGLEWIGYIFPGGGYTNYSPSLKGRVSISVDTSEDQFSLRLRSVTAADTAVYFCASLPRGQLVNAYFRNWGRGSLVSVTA
Sequence of H2-6 position 59 mutant (Y->F) (human) (light, as listed by the source, chain 2 of 2): as the sequence (light, as listed by the source, chain 2 of 2) above

Take gp120 Core Bal (domain or fragment): the Kd came out at 212 nM in experiment [1]; 12.8 nM in experiment [2]; 1100 nM in experiment [3]; 11.7 nM in experiment [4]; 91 nM in experiment [5].
Regarding gp120 Core HXB2 (domain or fragment), the Kd in experiment [1] came to 30.9 nM; in experiment [2], 2.2 nM; in experiment [3], 138 nM; in experiment [4] it was 2.3 nM; in experiment [5] it was 52 nM.
